Experimental data taken from patent publication US5789538.

Target: Zif268 finger 1 variant phage pool, CCTG selection round 5 finger 1 positions -1, 2, 3, 6 randomized (four NNS codons), pool (UniProt P08046)
Assay: SELEX
Conditions: [none], phage display pool, no enrichment, 0.45 M NaCl washes, 10 uM ZnCl2, 5 mM MgCl2

Q: For “CTGAGCGTGGCCTGAGTGATCGATC / CACTCAGGCCACGCTCAG [CCTG duplex]”, which activity (% phage retention) is on record?
A: < 0.001
